The DeepSol protein solubility set

Experiment: soluble on expression in E. coli; label from the status in PepcDB or PDB records

Row | Sequence | soluble on expression in E. coli
1 | MGSDKIHHHHHHMTVQSSDVIAPPAPRTLPDTGLSLVMLRDILLKTMFRMNLELVSQIAPVICLPAPLAQELVDLARSQRLVEATGTLHATSGNEMGYQLTDQGKARALDALSQSEYYGAMPVPLDRYRLQVERQSVRHIKLTRAQLTAAMGHLILPDELLDHLGPAVTSGRSILMYGPPGNGKSSISNGIRDALGDRIYVPRALEYSGQVITVYDPIVHRSAESAVDDPTSLRRTSNRFDNRYVWCERPTVITGGELTLDMLDLTYNPVARTYQAPLQLKATGGIFIVDDLGRQAEPPQKLVNRWIVPLEENRDILALQSGEKFTVPFDTLVIFSTNFHPNEIFDGAALRRIFFKIKVDGPSQENFLKIFAMVAKKRKMPLDETALVHLMKAKFPTIDNRYANYMPVYLIDQMISVCDFEGLPYQMTPALIDRAWSNMFVRDEVIAK | not soluble
2 | MGSDKIHHHHHHMSATEKRRYEVLRAIVADYIASQEPVGSKSLLERHKLNVSSATIRNDMSVLESDGFIVQEHASSGRVPTERGYRLFVDSIHDIKPLSLAERRAILGFLEGGVDLEDVLRRSVQLLSQLTHQAAVVQLPTLKTARVKHCEVVPLSPMRLLLVLITDTGRVDQRNVELEEPLAAEEVNVLRDLLNGALGEKTLTAASDALEELAQQAPTDIRDAMRRCCDVLVNTLVDQPSDRLILAGTSNLTRLSRETSASLPMVLEALEEQVVMLKLLSNVTDLDQVRVHIGGENEDIELRSATVITTGYGSQGSALGGLGVVGPTYMDYSGTISKVSAVAKYVGRVLAGE | not soluble
3 | MSLSNDISILFVEDDKEVRAQISDFLTSNMFKDVYVANNGKDGLLKYNIHKPDIVLSDLNMPIMDGLEMSRAIKALDENTPILLITSNFEKNVTEAAVDIGIEGCLFKPLSLNRVEKILTKYIEKIMFQREFKNKQKLLEQYKSIIDISSSVTKTDINGIITYVNNPFCDMSGYSKDELLGKNHTIISHPDNSKEFYEEIYSTLRDKKIWRGHIKNRRKNGDSYYESSVIAPILDENDEIVECISLKQDITELYAEGHHHHHH | soluble
4 | MEIQFLGTGAGVPAKHRNVTGIALKLLDERNAVWLFDCGEGTQLQILKSSIRPRKIEKIFITHLHGDHIFGLPGLLSSRSFQGGTEPLEIYGPVGIADFVKTSLRVSQSRLSYPLKFIELTKENDVIFKDKQFTVRCNILDHGITSFGYRIEEAAHEGELQVEKLQALGIPSGPLYGKLKRGETIVFDGQEINGQAFVGERKPGRIVTILGDTRKTKNSVTLARRADVLVHESTFNKHEAKMAKAYFHSTSQQAAEVAKEAQVKQLILTHISARYLTKEAYQLQEEAQEIFPNTKIVKDMDIIEIPFANEGGA | not soluble
5 | MSLANRMPTPGSLAAFLKDRRTRLDPASFGFSGRRRTPGLRREEVAQRANISPTWYTWLEQGRGGAPSADVLNRIAKGLLLTEAEREHLFMLGLGRPPEVRYRGDEGVSPRLQRLIDTLEASPALVKTATWDVVAWNRAAEIVLTDYGTIPAGRRNILRFMFLTPHIRAKQHDWENLARFVVGAFRADAARAGAVSEVTQLVDELCSGSAEFATLWQENDVLAHGDGTKRLKHPELGDIELEYSSFAVDGRPDLNLTVYNPVDSEVADRIRSLAKRLREGHHHHHH | soluble
6 | MAHHHHHHMNCKNMDTSYEIINYLTKDELDIDLSCMDKKERYKIWKRLPKCELHCHLDVCFSVDFFLNVIRKYNIQPNMSDEEIIDYYLFSKPGKSLDEFVEKALRLTDIYIDYTVVEDLAKHAVFNKYKEGVVLMEFRYSPSFMSFKHNLDKDLIHEAIVKGLNEAVALLEYKIQVGLLCTGDGGLSHERMKEAAEFCIKHKKDFVGYDHAGHEVDLKPFKDIFDNIREEGISLSVHAGEDVSIPNLNSLYTAINLLHVKRIGHGIRVSESQELIDLVKEKDILLEVCPISNVLLNNVKSMDTHPIRMLYDAGVKVSVNSDDPGMFLTNITDNYEELYTHLNFTLADFMKMNLWAVQKSFVDPDIKNKIISKYF | soluble
7 | MALKPTIYKFRIALSDMNNDYYDSKNLTIALHPSEKPQRMLARILAFCLNAQKDLEFTKGLSTTEEPDLWHVADDQSITHWIEIGEPEPDRIKKASRLAKQVKVYTYNTKAPVWWEKMSGKFSMLPVSVESFDYDAIDMICQHLDRGTNLSVMITGTSIFVDVNDQHVEVTVKELQSHDAP | not soluble
8 | MMYIYTYTDPFGKRRYTYSKDLVKLREKEQKLLKDQLDGLDVYAAGNANLNFVFDRYISTKTELRRTTYTNYMYMYDHYVRDSFGKKKIGEIKYSDVLYFYYHLINERKLQVNTLETIHTVLHPTFQLAVRDDIIRNNPSHGVMSEIKKKPGRNHGVRHALTVEQQRAFMNYTSNSPVFNHWAPLFTVLLGTGCRIGEIIGIRWEDIDLEKRLININHSVTYYPRRAETTKCEFAVSLPKTEAGIRTVPMMEPVYNAFMEEYEYQKENGFSTVTLDGMEGFIFTNRFGNLHNPQAVNRTIKRI | not soluble
9 | MKNQLGQLALEQAKTFGGKLEVQPKVDIKTKHDLSIAYTPGVASVSSAIAKDKTLAYDLTTKKNTVAVISDGTAVLGLGDIGPEAAMPVMEGKAALFKAFAGVDAIPIVLDTKDTEEIISIVKALAPTFGGINLEDISAPRCFEIEQRLIKECHIPVFHDDQHGTAIVVLAAIFNSLKLLKKSLDEVSIVVNGGGSAGLSITRKLLAAGATKVTVVDKFGIINEQEAAQLAPHHLDIAKVTNREFKSGTLEDALEGADIFIGVSAPGVLKAEWISKMAARPVIFAMANPIPEIYPDEALEAGAYIVGTGRSDFPNQINNVLAFPGIFRGALDARAKTITVEMQIAAAKGIASLVPDDALSTTNIIPDAFKEGVAEIVAKSVRSVVLKS | not soluble
10 | MSYGLIIVLMIILGIGLWHTKKYHRAVVNQVAHVWITKNAFEHTALGMAIVSPDCRFLKVNRAYGEITGYTRPELLKMAVKELTHPEDQEKDTPYLQEVFAGNIHSFTTVKRYIHKNGSTIWVRSTISAVRTERGNLEHHHHHH | soluble
11 | MTARYIAIDWGSTNLRAWLYQGDKCLESRQSEAGVTRLNGKSPDAVLAEVTTHWRDSATPVVMAGMIGSNVGWQNAPYLPVPALFSAIGEQLTAVGDNIWIIPGLCVSREDNHNVMRGEETQLLGACELSPSSVYVMPGTHCKWVQTDTQQIHDFRTVMTGELHHLLLRHSLVGAGLPEQEVSGDAYAAGLERGLNSPAVLPSLFEVRASHVLGHLAREQVSDFLSGLLIGAEVASMSESFAAQQAITLVAGPALISRYQQAFSAIGRDVSTVDGDMAFQAGIRSIAHAVAN | not soluble
12 | MRGSHHHHHHMSIITDVYAREVLDSRGNPTLEVEVYTESGAFGRGMVPSGASTGEHEAVELRDGDKSRYGGLGTQKAVDNVNNIIAEAIIGYDVRDQQAIDRAMIALDGTPNKGKLGANAILGVSIAVARAAADYLEIPLYSYLGGFNTKVLPTPMMNIINGGSHSDAPIAFQEFMILPVGAPTFKEALRYGAEIFHALKKILKSRGLETAVGDEGGFAPRFEGTEDGVETILAAIEAAGYVPGKDVFLGFDCASSEFYDKERKVYDYTKFEGEGAAVRTSAEQIDYLEELVNKYPIITIEDGMDENDWDGWKALTERLGKKVQLVGDDFFVTNTDYLARGIQEGAANSILIKVNQIGTLTETFEAIEMAKEAGYTAVVSHRSGETEDSTIADIAVATNAGQIKTGSLSRTDRIAKYNQLLRIEDQLGEVAEYRGLKSFYNLKK | soluble
13 | MSEVDAQEEFHDAPEEAVIEIQKDFVAEIEQDNSNAQLVEEGDDQLVTAEADDEKSAQQVDEDRTEDQVPDITGTEYVDPMTTSMDGIEDLPANDEAQFEDTILEEDELPDQLESAENQEPRSELVSSGVEEEIIEEEDIEEIEESDYVEESAPADEPAPEEEKPQEEAPAEEPAPAEEAPQEEVPAEEPVAEETAPAEEAAVEEPVVEEAAPVEEAPEAEETAPAEEPLIEVAVEEAPAEEPVAEEAEPEAEKQEFELQAPPEGKRPRTPNDLDNPTADEEPAAELEADAGSEVPPTPKTAASEKQSVPPTPKSAAPSEVPPTPKSAAPSEVPPTPKSAAPSEVPLTPKSAAQSSVPPTPKSAVPSEAPPTPRSAAPSDVPPTPKSNGHIANGSIPGTPSVAQESAKATPAATPAATATPAATATPAATGTPKADTAFNFEETPATPRSSVPATPTESNLTTPAPKTPKTPKTPRTPRTPKTPRTPKTPAVVEPEPEPVAEEPEPVAEPEPEPEPVAEAEPEAEPAVEEEPAEEPEPAADETATEPTAEEAEPEAVEESIEKTEVVEEESAPPAARQSSPSPPPARRRPQSPSPERQRTSRHADRDITSYDEDSYRAVPPPRMPTATSFSSWSPPDKQSYTPISPFVSTANKYRNEYTSGSSYRPTNMYTSHFDDIVATGAFSSALYSTNRLIERSRSRTRERKQAMRSQRSASNYYRYSSQAPAPLRAREYSTPPTREISRAPSRNTSFVSFLDYSSAKQGELSRANSRTSIYGDSLSRSCSRANVDAYLGGGRLSRVDSYVRDIHTPYEYEVPSTYDRYRSSSRGPSYSTINGYTAYISSPSYVETESTRRMKRYQRDTSPAMVRSMYEGRIGQLERSLSREVIQKDRVCLWRLGNVVYGGLYRKKYDADLEKAVQYYSSCAKKRRF | not soluble
14 | MGSDKIHHHHHHMNSIQLKAVSFSREQPLFEKTNLAIPQGTFSLLIGDSGSGKSTLLRLIAGFAPLDYQGEILIEGMERRQLSTREKAQKIGMLFQNPSQQFTMKTLERELIFALENLGIPPEEMNRKIQTALQLVQTQTLFTRELATLSGGEKQKAALTVLLAMNPDILLLDEPFASIDPTSRKQFIQILARLHQAGKTILVCDHDFSDYADVVDQVVTLKNGQFEKQPLTFIKTKPQTFQLTTSVVKQPMLQLKNFRLSQGKRVLLEEKEALLFKGITTLTGPNGAGKSTLLKAIVQRQKYQGKMFLAGRRLRASKKLYQHMTLAVQQANRQFVTLTLREELLFGQNMTAEKRRKQEEALTFLGLKEKLEHSVFQLSEGQKKMVQLISLLSLDLDCLLLDEPFAGLDERACNYFVEWIKEKSAQQDFLIVTHRLEPLSGVSNYRIELLQQQLIIWQEGTTCK | not soluble
15 | MGSDKIHHHHHHMETRRDERIGQLLQALKRSDKLHLKEAATLLGVSEMTIRRDLNHKSAPVVLLGGYIVLEPRSASHYLLSDQKSRLVEEKRRAAQLAAGLVQAHQTVFIDCGTTTPWIIEAIDNDLPFTAVCYSLNTFLALQDKPHCRAILSGGEFHASNAIFKPLDFHETLNNICPDIAFYSAAGVHTSKGATCFNLEELPVKHWAMTMAQCHVLVVDHSKFGKVRPARMGELSRFDTIISDRRPDEAFVAYAKAQQITLMY | not soluble
16 | MKFPGQRKSKHYFPVHTRDPLVNQINQTPKLERTHLIGVGQTIVDIEAKVDDDFLNRHQLSKGHSLVLEESKAEALYKELFERNLISHEYPGDTIGNTLHNYSVLADSKSILLGVMSEDIKIGSYAYRYLCNTTSRMDLDYLQPVQGPIGRCYTLISEDGERTFAINEGDMNQLCPTHVPEHIFEKASALVISSYLVRGKEGDPMMDAVRKAIDCAKSHNVPVVLTLGTKYVIEGKAEWWQTFLKENVTVVAMNEEEAEALTGEKDPLLAADKALEWVDLVLCTAGPIGLYMAGFTEESIKRETSKPLLPGNIPEFNRFEYSRPMVKALCKKPIKVSSHIAPYMGGPVEIKNTNGAGDAALSALLHDMAANYYHKENVPNSSKHDAEYLTYSSFSQICKYSNRASYEVLTQHSPRLSKSMPEREDCLEEAYWER | not soluble
